Test results: the supplement of paper PMC9112550, “Optimization of the antimicrobial peptide Bac7 by deep mutational scanning” (BMC Biology, 2022)

Test system: Escherichia coli TOP10
Test: shrunken log2 fold change of peptide-encoding DNA abundance (4.5 h post-induction vs induction); higher = less antimicrobial activity (less host growth inhibition)
Conditions: time post-induction: 4.5 h; library: site-saturation at positions 5, 18, 19, 20
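Note: peptides expressed intracellularly from a pBAD plasmid library in pooled LB shake-flask culture, induced with 0.3% L-arabinose, DNA abundance read by NGS, three biological replicates, DESeq2 with apeglm shrinkage.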

| Sequence | shrunken log2 fold change |
| --- | --- |
| RRIRNRPPRLPRPRPRPFRKPRP | -0.0467 |
| RRIRQRPPRLPRPRPRPQLNPRP | -0.367 |
| RRIRDRPPRLPRPRPRPTLIPRP | 0.0896 |
| RRIRIRPPRLPRPRPRPKSLPRP | 0.0615 |
| RRIRWRPPRLPRPRPRPAMWPRP | 0.433 |
| RRIRQRPPRLPRPRPRPVMWPRP | 0.448 |
| RRIRMRPPRLPRPRPRPWYNPRP | -0.044 |
| RRIRYRPPRLPRPRPRPLEEPRP | -0.0801 |
| RRIRNRPPRLPRPRPRPGDIPRP | 0.0338 |
| RRIRLRPPRLPRPRPRPWPMPRP | -0.0188 |
| RRIRKRPPRLPRPRPRPPAFPRP | 0.309 |
| RRIRLRPPRLPRPRPRPNAYPRP | 0.0618 |
| RRIRSRPPRLPRPRPRPQPTPRP | 0.447 |
| RRIRDRPPRLPRPRPRPENSPRP | 0.0647 |
| RRIRTRPPRLPRPRPRPAPLPRP | 0.368 |
| RRIRTRPPRLPRPRPRPRWKPRP | 0.0709 |
| RRIRGRPPRLPRPRPRPRWTPRP | 0.43 |
| RRIRERPPRLPRPRPRPKPKPRP | 0.0931 |
| RRIRYRPPRLPRPRPRPYLYPRP | -0.109 |
| RRIRLRPPRLPRPRPRPCSPPRP | -0.0527 |
| RRIRCRPPRLPRPRPRPCTWPRP | -0.0985 |
| RRIRRRPPRLPRPRPRPGYIPRP | -0.177 |
| RRIRWRPPRLPRPRPRPNQQPRP | -0.0465 |
| RRIRDRPPRLPRPRPRPICTPRP | 0.198 |
| RRIRLRPPRLPRPRPRPNMHPRP | -0.565 |

| Sequence | shrunken log2 fold change |
| --- | --- |
| RRIRDRPPRLPRPRPRPREGPRP | 1.01 |
| RRIRRRPPRLPRPRPRPKRKPRP | 0.099 |
| RRIRHRPPRLPRPRPRPDTAPRP | 0.0194 |
| RRIRVRPPRLPRPRPRPSTFPRP | -0.479 |
| RRIRSRPPRLPRPRPRPYMFPRP | -0.648 |
| RRIRHRPPRLPRPRPRPEPIPRP | 0.021 |
| RRIRHRPPRLPRPRPRPVPVPRP | 0.0601 |
| RRIRARPPRLPRPRPRPQSPPRP | -0.0671 |
| RRIRLRPPRLPRPRPRPFRAPRP | 0.113 |
| RRIRFRPPRLPRPRPRPYMTPRP | -0.49 |
| RRIRVRPPRLPRPRPRPLSDPRP | 0.0263 |
| RRIRCRPPRLPRPRPRPSKSPRP | -0.0548 |
| RRIRKRPPRLPRPRPRPQPMPRP | 0.462 |
| RRIRYRPPRLPRPRPRPKVNPRP | -0.599 |
| RRIRTRPPRLPRPRPRPKMTPRP | 0.214 |
| RRIRLRPPRLPRPRPRPKHSPRP | -0.107 |
| RRIRPRPPRLPRPRPRPFPKPRP | 0.166 |
| RRIRARPPRLPRPRPRPILTPRP | 0.0217 |
| RRIRPRPPRLPRPRPRPQLWPRP | 0.221 |
| RRIRWRPPRLPRPRPRPWNYPRP | -0.98 |
| RRIRDRPPRLPRPRPRPVWQPRP | 0.63 |
| RRIRMRPPRLPRPRPRPPKYPRP | -0.0762 |
| RRIRSRPPRLPRPRPRPQVLPRP | -0.0779 |
| RRIRGRPPRLPRPRPRPLMHPRP | 0.592 |
| RRIRNRPPRLPRPRPRPWSWPRP | 0.266 |

| Sequence | shrunken log2 fold change |
| --- | --- |
| RRIRPRPPRLPRPRPRPHHGPRP | 0.0245 |
| RRIRLRPPRLPRPRPRPGIGPRP | 0.417 |
| RRIRTRPPRLPRPRPRPCRNPRP | -0.533 |
| RRIRTRPPRLPRPRPRPYCRPRP | -0.149 |
| RRIRIRPPRLPRPRPRPRIAPRP | -0.0281 |
| RRIRRRPPRLPRPRPRPLAGPRP | 0.477 |
| RRIRMRPPRLPRPRPRPACYPRP | 0.223 |
| RRIRTRPPRLPRPRPRPWKDPRP | 0.0143 |
| RRIRKRPPRLPRPRPRPENLPRP | 3.46 |
| RRIRIRPPRLPRPRPRPFRTPRP | -0.241 |
| RRIRNRPPRLPRPRPRPTVWPRP | 0.563 |
| RRIRQRPPRLPRPRPRPPLYPRP | 0.233 |
| RRIRDRPPRLPRPRPRPFIWPRP | 0.293 |
| RRIRCRPPRLPRPRPRPENMPRP | -0.57 |
| RRIRDRPPRLPRPRPRPPKVPRP | 0.387 |
| RRIRIRPPRLPRPRPRPPCAPRP | 0.201 |
| RRIRERPPRLPRPRPRPCQRPRP | 0.0562 |
| RRIRCRPPRLPRPRPRPIRHPRP | -0.146 |
| RRIRLRPPRLPRPRPRPWMTPRP | -0.0262 |
| RRIRARPPRLPRPRPRPSMGPRP | -0.0314 |
| RRIRARPPRLPRPRPRPYLGPRP | 0.0554 |
| RRIRNRPPRLPRPRPRPDCRPRP | -0.119 |
| RRIRRRPPRLPRPRPRPGHLPRP | 0.067 |
| RRIRQRPPRLPRPRPRPRRTPRP | 0.655 |
| RRIRIRPPRLPRPRPRPCREPRP | -0.0225 |
